Measured values reported in paper PMC3510490 (Nucleic Acids Research, 2012).

Target: T1, (H3–H4)2 tetramer (Xenopus laevis, UniProt P84233 1-136; P62799 1-103, H4 E63C, Alexa 488 maleimide on C63 (H4 E63C))
T1 construct: Histone H3, Xenopus laevis; also called H3–H4 tetramer; H3–H4 complex; copies: 2 + 2
Experiment: other fluorescence titration; Arp constructs or sub-complex titrated (1 to 5000 nM) into fluorescently labelled histone complexes or nucleosomes kept at 0.5-1 nM, 40 µl in microplates; 20 mM Tris pH 7.5, 150 mM KCl, 5% glycerol, 1 mM TCEP, 0.01% CHAPS, 0.01% octylglucoside; room temperature, 20-30 min; apparent Kd and Hill coefficient from non-linear fit; quadruplicates
Details: both partners purified

Kd [nM]	Binder
74.3	Saccharomyces cerevisiae Arp4 (natural protein, Actin-related protein 4 (Arp4), S. cerevisiae; also called Sc Arp4; yeast Arp4) MSNAALQVYGGDEVSAVVIDPGSYTTNIGYSGSDFPQSILPSVYGKYTADEGNKKIFSEQSIGIPRKDYELKPIIENGLVIDWDTAQEQWQWALQNELYLNSNSGIPALLTEPVWNSTENRKKSLEVLLEGMQFEACYLAPTSTCVSFAAGRPNCLVVDIGHDTCSVSPIVDGMTLSKSTRRNFIAGKFINHLIKKALEPKEIIPLFAIKQRKPEFIKKTFDYEVDKSLYDYANNRGFFQECKETLCHICPTKTLEETKTELSSTAKRSIESPWNEEIVFDNETRYGFAEELFLPKEDDIPANWPRSNSGVVKTWRNDYVPLKRTKPSGVNKSDKKVTPTEEKEQEAVSKSTSPAANSADTPNETGKRPLEEEKPPKENNELIGLADLVYSSIMSSDVDLRATLAHNVVLTGGTSSIPGLSDRLMTELNKILPSLKFRILTTGHTIERQYQSWLGGSILTSLGTFHQLWVGKKEYEEVGVERLLNDRFR
485	Saccharomyces cerevisiae Arp8 (natural protein, Actin-related protein 8 (Arp8), S. cerevisiae; also called Sc Arp8; yeast Arp8) MSQEEAESSIIYEEPIDIPLEDDDDEDELEEENSVPLSSQADQENAENESDDSVDNVVGSETPRSVTGLSVDPRDVADEEDEDEEGEDEDEDEDDNDVDNEDENDNDNANENENELGSSRDKRAPPAVQTSKRYKKYPKLDPAKAPPGKKVPLHLLEKRRLGRIKAAEEFAKTLKKIGIEKVETTTLPATGLFQPLMLINQKNYSSDYLKKDDQIFALRDRKFLRNNNTSQISSTNTPDVIDLKSLPHSEASAAPLNDEIDLNDPTATIVIHPGSNSIKIGFPKDDHPVVVPNCVAVPKKWLDLENSEHVENVCLQREQSEEFNNIKSEMEKNFRERMRYYKRKVPGNAHEQVVSFNENSKPEIISEKNDPSPIEWIFDDSKLYYGSDALRCVDEKFVIRKPFRGGSFNVKSPYYKSLAELISDVTKLLEHALNSETLNVKPTKFNQYKVVLVIPDIFKKSHVETFIRVLLTELQFQAVAIIQESLATCYGAGISTSTCVVNIGAAETRIACVDEGTVLEHSAITLDYGGDDITRLFALFLLQSDFPLQDWKIDSKHGWLLAERLKKNFTTFQDADVAVQLYNFMNRSPNQPTEKYEFKLFDEVMLAPLALFFPQIFKLIRTSSHKNSSLEFQLPESRDLFTNELNDWNSLSQFESKEGNLYCDLNDDLKILNRILDAHNIIDQLQDKPENYGNTLKENFAPLEKAIVQSIANASITADVTRMNSFYSNILIVGGSSKIPALDFILTDRINIWRPSLLSSASFPQFYKKLTKEIKDLEGHYVNAPDKTEDENKQILQAQIKEKIVEELEEQHQNIEHQNGNEHIFPVSIIPPPRDMNPALIIWKGASVLAQIKLVEELFITNSDWDVHGSRILQYKCIFTY
